The source of these data is article PMC10110616.

Broadly, the stoichiometry N is the number of molecules, sites or subunits per partner or assembly.

The test deals with Delta-C70-Ferritin-HexaPro (DCFHP), from Expi293F cells (SARS-CoV-2 (Wuhan-1 isolate) | H. pylori) (UniProt P0DTC2). Put plainly: SEC-MALS. A general note: Size exclusion chromatography separates by hydrodynamic size, large species first.

For the substance “Delta-C70-Ferritin-HexaPro (DCFHP), from Expi293F cells (from UniProt P0DTC2 14-1146; Q9ZLI1 5-167)”, the stoichiometry N stood at 24.
